Measurements published in patent US20260308536A1, “NOVEL URICASE VARIANTS AND METHODS OF USE THEREOF” (priority 2023, published 2026).

What was measured:
Format in all cases: biochemical, Aspergillus flavus
[1] = test system: O=c1[nH]c(=O)c2[nH]c(=O)[nH]c2[nH]1; assay: Michaelis-Menten kinetics, RasU_D8; conditions: other: role: substrate; RasU_D8 (SEQ ID NO: 236); pH 10.5; 25.0 °C
Description: (§1) Select Aspergillus flavus uricase variants RasU_D12, as well as its subvariants RasU_D12-A56T, and RasU_D12-W160E; and RasU_D8, as well as its subvariants RasU_D8-T33V, RasU_D8-Y65H, RasU_D8-W160E, RasU_D8-A209N, and RasU_D8-T210K were subject to further characterization by comparing their expression yields, Michaelis-Menten kinetics parameters, and thermostability measured by temperatures at which 50% of normal activity was lost determined by heat stress activity assay, with those of the wild type Aspergillus flavus uricase. As the names of the subvariants indicated, the subvariants of RasU_D12 were constructed by introducing an additional amino acid substitution A56T or W160E into the RasU_D12 variant, while the subvariants of RasU_D8 were constructed by introducing an additional amino acid substitution T33V, Y65H, W160E, A209N, or T210K into the RasU_D8 variant. Each of the additional amino acid substitutions was to address residual T cell epitopes in the RasU_D8 or RasU_D12 variant. The expression yields were determined as described above in the “Methods” section. The determination of the Michaelis-Menten kinetics parameters kcat and KM, and the heat stress activity assay were likewise performed using the methods described in Example 1. […]

[2] = test system: O=c1[nH]c(=O)c2[nH]c(=O)[nH]c2[nH]1; assay: Michaelis-Menten kinetics, RasU_D8-A209N; conditions: other: role: substrate; RasU_D8-A209N (SEQ ID NO: 272); pH 10.5; 25.0 °C
Description: as §1

[3] = test system: O=c1[nH]c(=O)c2[nH]c(=O)[nH]c2[nH]1; assay: Michaelis-Menten kinetics, RasU_D8-T33V; conditions: other: role: substrate; RasU_D8-T33V (SEQ ID NO: 269); pH 10.5; 25.0 °C
Description: as §1

[4] = test system: O=c1[nH]c(=O)c2[nH]c(=O)[nH]c2[nH]1; assay: Michaelis-Menten kinetics, RasU_D8-T210K; conditions: other: role: substrate; RasU_D8-T210K (SEQ ID NO: 273); pH 10.5; 25.0 °C
Description: as §1

[5] = test system: O=c1[nH]c(=O)c2[nH]c(=O)[nH]c2[nH]1; assay: Michaelis-Menten kinetics, RasU_D8-W160E; conditions: other: role: substrate; RasU_D8-W160E (SEQ ID NO: 271); pH 10.5; 25.0 °C
Description: as §1

[6] = test system: O=c1[nH]c(=O)c2[nH]c(=O)[nH]c2[nH]1; assay: Michaelis-Menten kinetics, RasU_D8-Y65H; conditions: other: role: substrate; RasU_D8-Y65H (SEQ ID NO: 270); pH 10.5; 25.0 °C
Description: as §1

[7] = test system: O=c1[nH]c(=O)c2[nH]c(=O)[nH]c2[nH]1; assay: Michaelis-Menten kinetics, RasU_D12; conditions: other: role: substrate; RasU_D12 (SEQ ID NO: 229); pH 10.5; 25.0 °C
Description: as §1

[8] = test system: O=c1[nH]c(=O)c2[nH]c(=O)[nH]c2[nH]1; assay: Michaelis-Menten kinetics, RasU_D12-A56T; conditions: other: role: substrate; RasU_D12-A56T (SEQ ID NO: 267); pH 10.5; 25.0 °C
Description: as §1

[9] = test system: O=c1[nH]c(=O)c2[nH]c(=O)[nH]c2[nH]1; assay: Michaelis-Menten kinetics, RasU_D12-W160E; conditions: other: role: substrate; RasU_D12-W160E (SEQ ID NO: 268); pH 10.5; 25.0 °C
Description: as §1

“Aspergillus flavus uricase variant RasU_D8 (Aspergillus flavus; A230N/A241D/A97K/E42N/I83E/N101D/S148D/V54N)” was tested, and the Km [1] was 900 ± 200 µM and the kcat [1] was 0.8 ± 0.1 s⁻¹.

“Aspergillus flavus uricase variant RasU_D8-A209N (Aspergillus flavus; A210N/A230N/A241D/A97K/E42N/I83E/N101D/S148D/V54N)” showed a Km [2] of 1100 ± 300 µM and a kcat [2] of 1.1 ± 0.1 s⁻¹.

Work on “Aspergillus flavus uricase variant RasU_D8-T33V (Aspergillus flavus; A230N/A241D/A97K/E42N/I83E/N101D/S148D/T34V/V54N)” yielded a Km [3] of 3000 ± 1000 µM and a kcat [3] of 1.6 ± 0.5 s⁻¹.

In the case of “Aspergillus flavus uricase variant RasU_D8-T210K (Aspergillus flavus; A230N/A241D/A97K/E42N/I83E/N101D/S148D/T211K/V54N)”, the Km [4] is reported as 3000 ± 2000 µM and the kcat [4] is reported as 2.0 ± 0.7 s⁻¹.

“Aspergillus flavus uricase variant RasU_D8-W160E (Aspergillus flavus; A230N/A241D/A97K/E42N/I83E/N101D/S148D/V54N/W161E)” was tested, and the Km [5] was 600 ± 200 µM and the kcat [5] was 1.2 ± 0.2 s⁻¹.

In the case of “Aspergillus flavus uricase variant RasU_D8-Y65H (Aspergillus flavus; A230N/A241D/A97K/E42N/I83E/N101D/S148D/V54N/Y66H)”, the Km [6] is reported as 3000 ± 1000 µM and the kcat [6] is reported as 1.7 ± 0.5 s⁻¹.

“Aspergillus flavus uricase variant RasU_D12 (Aspergillus flavus; A230N/A241D/A97K/E42N/I83E/N101D/S148D/T211K)” was tested, and the Km [7] was 400 ± 100 µM and the kcat [7] was 1.3 ± 0.1 s⁻¹.

Work on “Aspergillus flavus uricase variant RasU_D12-A56T (Aspergillus flavus; A230N/A241D/A57T/A97K/E42N/I83E/N101D/S148D/T211K)” yielded a Km [8] of 1500 ± 600 µM and a kcat [8] of 1.4 ± 0.3 s⁻¹.

“Aspergillus flavus uricase variant RasU_D12-W160E (Aspergillus flavus; A230N/A241D/A97K/E42N/I83E/N101D/S148D/T211K/W161E)” showed a Km [9] of 1700 ± 1000 µM and a kcat [9] of 1.7 ± 0.5 s⁻¹.
